The values that follow come from patent US20130287807A1, “COMPOUNDS FOR TREATING SYMPTOMS ASSOCIATED WITH PARKINSON'S DISEASE” (priority 2008, published 2013).

Assay [1] deals with monoclonal antibody MV-003. The assay is described as follows: In vitro binding assay (ELISA), BSA-coupled peptides, parental antibody MV-003. On the set-up: species or system BalbC mice. The following applies: Table 1A; peptide-BSA on plate, compared to original epitope. The procedure: Peptides derived from Phage Display as well as variants thereof were coupled to BSA and bound to ELISA plates (1 μM; as indicated in the respective figures) and subsequently incubated with the monoclonal antibody that was used for the screening procedure to analyse binding capacity of identified peptides.
Legend to Table 1A: the binding capacity is coded by the following binding code: 1:X describes the dilution factor of the parental AB.

Assay [2] has as its system Aβ/truncated/modified forms. The assay is described as follows: In vivo characterisation of mimotopes: detection of Aβ/truncated/modified forms. On the set-up: species or system C57/B16 mice; key: +: All peptides listed in Table 5 mount specific immune reactions against full length and/or truncated and modified forms of Aβ or fragments thereof. The following applies: Table 5, MV-003 derived mimotopes. The procedure: Inhibiting as well as non-inhibiting peptides were coupled to KLH and injected into mice (wildtype C57/B16 mice; subcutaneous injection into the flank) together with an appropriate adjuvant (aluminium hydroxide). Animals were vaccinated 3-6 times in biweekly intervals and sera were taken biweekly as well. Titers to injected peptides, as well as to an irrelevant peptide were determined with every serum. Furthermore, titers against the recombinant human Aβ protein, and against original peptides were determined respectively. In general sera were analysed by reaction against peptides coupled to Bovine Serum Albumin (BSA) and recombinant full length proteins which were immobilised on ELISA plates. Titers were determined using anti mouse IgG specific antibodies. For detailed results see FIGS. 15, 16 and 17 respectively and FIGS. 23, 24 and 25 respectively.
(§1) Female C57/b16 mice, 5-6 mice per group, were subcutaneously immunized with 30 μg peptide coupled to KLH. Control groups were administered original epitope-KLH conjugates respectively. As adjuvant alum was used (always 1 mg per mouse). […] The in vitro ELISA assay to determine the antibody titer was performed with sera of single mice after each vaccination in a two week interval (see FIGS. 15 and 16 respectively). The wells of the ELISA plate were coated with mimotope-BSA conjugate and an irrelevant peptide-BSA conjugate (negative control). The positive control was performed by reaction of the parental antibody with the respective mimotope-BSA conjugate. The detection was performed with anti-mouse IgG. Additionally, recombinant proteins were immobilised on ELISA plates and sera reacted accordingly. FIGS. 15 to 17 show representative examples for assays used to characterise mimotopes in vivo.
as §1, with “FIGS. 25” for “FIGS. 15”, “and 26” for “and 16”, “respectively). Titers were calculated as OD max/2 in all figures shown.” for “respectively).”, “FIGS. 23, 24 and 25” for “FIGS. 15 to 17”

The subject of assay [3] is monoclonal antibody MV-003. As to the kind of experiment: In vitro inhibition assay (ELISA), MV-003 binding to original epitope. On the set-up: species or system BalbC mice. To be noted: Table 2A; OD at 10 ug peptide compared to original peptide. The procedure:
Different amounts of peptides (concentrations ranging from 10 μg to 0.08 μg; serial dilutions; for MV-002: concentrations ranging from 5 μg to 0.03 μg; serial dilutions), derived from Phage Display were incubated with the monoclonal antibody that was used for the screening procedure. Peptides diminishing subsequent binding of the antibody to the original epitope coated on ELISA plates were considered as inhibiting in this assay.
Legend to Table 2A: the inhibition capacity is coded by the following code: Weak inhibition means more peptide is required to lower AB binding than with the original epitope; strong inhibition means similar peptide amounts are required for mimotope and original epitope for lowering AB binding. Mimotopes are compared to the original peptide as standard. OD at 10 ug peptide used in the assay is used to calculate the competition capacity compared to original peptide.
Background: In an ELISA, binding on a coated surface is turned into a signal by an enzyme label.

The test system of the next assay is amyloid plaques. As to the kind of experiment: Tg2576 AD mouse model: area occupied by amyloid plaques after mimotope vaccination. It is filed as in vivo, Tg2576 mice. To be noted: FIG. 18 Gr2 p4381, Gr3 p4390, Gr4 p4715, FIG. 26 Gr2 p4675, FIG. 19 Gr2 p4395.
Assay [4] addresses monoclonal antibody MV-001. The assay is described as follows: ELISA on peptide-BSA; code 3 = strong binding, OD halfmax 1:>20000.
Assay [5] deals with monoclonal antibody MV-001. As to the kind of experiment: inhibition ELISA, competitor coated original epitope p4371; code 2 = strong inhibition (as original epitope).
Assay [6] has as its target monoclonal antibody MV-003. As to the kind of experiment: ELISA on peptide-BSA; code 1 = weak binding, OD halfmax 1:<16000.
Assay [7] addresses monoclonal antibody MV-003. The assay is described as follows: inhibition ELISA, competitor coated original epitope p4373; code 1 = weaker than original epitope.
In assay [8] the target is monoclonal antibody MV-003. As to the kind of experiment: ELISA on peptide-BSA; code 3 = strong binding, OD halfmax 1:>60000.
Assay [9] addresses DAEFRH-peptide-specific monoclonal antibody (Example 1). The assay is described as follows: inhibition ELISA, competitor plate-bound DAEFRH-C-BSA.
The target is the same in assay [10]. The assay is described as follows: inhibition ELISA, competitor plate-bound DAEFRH-C-BSA; inhibitory capacity.
Assay [11] deals with monoclonal antibody MV-004. The assay is described as follows: ELISA on peptide-BSA; code 3 = strong binding, OD halfmax 1:>96000.
Assay [12] concerns the target monoclonal antibody MV-004. The assay is described as follows: inhibition ELISA, competitor coated original epitope p4372; code 2 = strong inhibition (as original epitope).
The target of assay [13] is monoclonal antibody MV-003. The assay is described as follows: inhibition ELISA, competitor coated original epitope p4373; code 2 = strong inhibition (as original epitope).
For assay [14], the target named is monoclonal antibody MV-004. The assay is described as follows: ELISA on peptide-BSA; code 1 = weak binding, OD halfmax 1:<24000.
For assay [15], the target named is monoclonal antibody MV-004. The assay is described as follows: inhibition ELISA, competitor coated original epitope p4372; code 1 = weaker than original epitope.

With IRYDMAGC [p4399], the “Binding Capacity” value in [1] is 1 (weak binding :<16000). In assay [2], the “Detection of Aβ/truncated/modified forms” value was “+”.
The like results for VRWDVYPC [p4396] were, in that order, 1 (weak binding :<16000) and “+”.
In the case of IRWDTPC [p4395], the “Binding Capacity” value in [1] is 2 (medium binding :16-60000). Moreover, the “Inhibition Capacity” value in assay [3] was 1 (Weaker than original epitope (OD of 10 ug peptide below 12 times of original peptide)). Besides, in the assay on amyloid plaques (Tg2576, 6 s.c. injections monthly, peptide-KLH on ALUM, mAb 3A5 staining, cortex and hippocampus, control group 0.35%), the “average occupation (relative area occupied by amyloid deposits in the brain)” value is 0.21%. The “reduction of area occupied by amyloid plaques following mimotope treatment” value in the assay on amyloid plaques (versus PBS-ALUM control group) was 38%. Moreover, the “Detection of Aβ/truncated/modified forms” value in assay [2] is reported as “+”.
For the molecule IRYDAPLC [p4397], the “Binding Capacity” value in assay [1] is listed as 1 (weak binding :<16000). In addition, the “Inhibition Capacity” value in assay [3] is recorded as 1 (Weaker than original epitope (OD of 10 ug peptide below 12 times of original peptide)). In [2], the “Detection of Aβ/truncated/modified forms” value is listed as “+”.

B1: p4802 (peptide)
peptide: CHEFRH
Take B1: the OD halfmax 1:X (dilution factor of the parental antibody at half-maximal OD) (dilutionfactor(1:x)) in assay [4] is > 20000. The OD at 10 ug peptide relative to OD of original peptide (inhibition ELISA) in assay [5] was < 2 fold.

B2: p4397 (peptide)
peptide: IRYDAPLC
As for B2, the dilution factor of the parental antibody at OD halfmax (1:X) (dilutionfactor(1:x)) in assay [6] is < 16000. This molecule also had an OD at 10 ug peptide relative to OD of original peptide (inhibition ELISA) in assay [7] of 5 to 12 fold.

B3: p4800 (peptide)
peptide: CSEFKH
In the case of B3, the OD halfmax 1:X (dilution factor of the parental antibody at half-maximal OD) (dilutionfactor(1:x)) in [4] was > 20000. Also, the OD at 10 ug peptide relative to OD of original peptide (inhibition ELISA) in [5] was < 2 fold.

B4: p4756 (peptide)
peptide: IRWDQPC
In the case of B4, in assay [8], the dilution factor of the parental antibody at OD halfmax (1:X) (dilutionfactor(1:x)) is > 60000. Further, the OD at 10 ug peptide relative to OD of original peptide (inhibition ELISA) in [7] lay within 5 to 12 fold.

B5: Peptide 3006 (peptide)
peptide: EAEFRGC
The term IC50 denotes the point on the concentration scale where inhibition reaches its midpoint. Consider B5, for which the IC50 in assay [9] and in [10] was < 0.5 µg/mL in each case.

B6: p4419 (peptide)
peptide: EVWHRLQC
B6: in [11], the OD halfmax 1:X (dilution factor of the parental antibody at half-maximal OD) (dilutionfactor(1:x)) is > 96000. Besides, the OD at 10 ug peptide as multiple of OD with original peptide in [12] was < 2 fold.

B7: Peptide 3005 (peptide)
peptide: YAEFRGC
Consider B7, for which the IC50 in assay [9] and in [10] was > 0.5 µg/mL in each case.

B8: p4753 (peptide)
peptide: TEFRHKAC
As to B8, the OD halfmax 1:X (dilution factor of the parental antibody at half-maximal OD) (dilutionfactor(1:x)) in assay [4] is > 20000. For the same molecule, the OD at 10 ug peptide relative to OD of original peptide (inhibition ELISA) in assay [5] was < 2 fold.

B9: p4728 (peptide)
peptide: IRWDTSLC
For B9, the dilution factor of the parental antibody at OD halfmax (1:X) (dilutionfactor(1:x)) in assay [8] is > 60000. The OD at 10 ug peptide relative to OD of original peptide (inhibition ELISA) in [13] is < 5 fold.

B10: p4396 (peptide)
peptide: VRWDVYPC
As for B10, in assay [6], the dilution factor of the parental antibody at OD halfmax (1:X) (dilutionfactor(1:x)) was < 16000.

B11: p4792 (peptide)
peptide: IRWDGC
On to B11, for which the dilution factor of the parental antibody at OD halfmax (1:X) (dilutionfactor(1:x)) in assay [6] was < 16000. For the same molecule, the OD at 10 ug peptide relative to OD of original peptide (inhibition ELISA) in [7] was 5 to 12 fold.

B12: Peptide 3001 (peptide)
peptide: DKELRIC
In the case of B12, the IC50 in [9] and in assay [10] was < 0.5 µg/mL in each case.

B13: p4418 (peptide)
peptide: ERWHEKHC
In the case of B13, in assay [11], the OD halfmax 1:X (dilution factor of the parental antibody at half-maximal OD) (dilutionfactor(1:x)) is > 96000. In addition, the OD at 10 ug peptide as multiple of OD with original peptide in assay [12] was < 2 fold.

B14: p4788 (peptide)
peptide: EVWHRGC
As to B14, in [14], the OD halfmax 1:X (dilution factor of the parental antibody at half-maximal OD) (dilutionfactor(1:x)) is < 24000. Besides, the OD at 10 ug peptide as multiple of OD with original peptide in assay [15] was in the range of 2 to 5 fold.

B15: p4803 (peptide)
peptide: HEFRHC
Take B15: in assay [4], the OD halfmax 1:X (dilution factor of the parental antibody at half-maximal OD) (dilutionfactor(1:x)) was > 20000. Besides, the OD at 10 ug peptide relative to OD of original peptide (inhibition ELISA) in assay [5] was < 2 fold.

B16: p4665 (peptide)
peptide: ELWHRAFC
Take B16: in assay [12], the OD at 10 ug peptide as multiple of OD with original peptide is < 2 fold.

B17: p4399 (peptide)
peptide: IRYDMAGC
Take B17: the dilution factor of the parental antibody at OD halfmax (1:X) (dilutionfactor(1:x)) in [6] is < 16000.

B18: p4786 (peptide)
peptide: ELWHRAC
Turning to B18, the OD halfmax 1:X (dilution factor of the parental antibody at half-maximal OD) (dilutionfactor(1:x)) in assay [14] was < 24000. Moreover, the OD at 10 ug peptide as multiple of OD with original peptide in assay [15] lay within 2 to 5 fold.

B19: p4715 (peptide)
peptide: TLHEFRHC
B19: the OD halfmax 1:X (dilution factor of the parental antibody at half-maximal OD) (dilutionfactor(1:x)) in assay [4] was > 20000. Moreover, the OD at 10 ug peptide relative to OD of original peptide (inhibition ELISA) in assay [5] was < 2 fold.

B20: p4790 (peptide)
peptide: ERWHEKC
Take B20: in assay [14], the OD halfmax 1:X (dilution factor of the parental antibody at half-maximal OD) (dilutionfactor(1:x)) was < 24000. Also, in [12], the OD at 10 ug peptide as multiple of OD with original peptide was < 2 fold.

B21: Peptide 3002 (peptide)
peptide: DWELRIC
B21: the IC50 in [9] and in [10] was > 0.5 µg/mL each time.

B22: p4789 (peptide)
peptide: EVWHRHC
As to B22, the OD halfmax 1:X (dilution factor of the parental antibody at half-maximal OD) (dilutionfactor(1:x)) in assay [14] was < 24000. The OD at 10 ug peptide as multiple of OD with original peptide in assay [15] fell in the range of 2 to 5 fold.
